# Patent US20240115706A1 (LG CHEM, published 2024)
# T1: monkey GUCY2C-rCD4 fusion protein (Macaca fascicularis (crab-eating …, limits assumed))
# T1 construct: Prepared by the same method as the human antigen; also called Cy-GUCY2C-rCD4; monkey GUCY2C recombinant antigen
# T1 chain: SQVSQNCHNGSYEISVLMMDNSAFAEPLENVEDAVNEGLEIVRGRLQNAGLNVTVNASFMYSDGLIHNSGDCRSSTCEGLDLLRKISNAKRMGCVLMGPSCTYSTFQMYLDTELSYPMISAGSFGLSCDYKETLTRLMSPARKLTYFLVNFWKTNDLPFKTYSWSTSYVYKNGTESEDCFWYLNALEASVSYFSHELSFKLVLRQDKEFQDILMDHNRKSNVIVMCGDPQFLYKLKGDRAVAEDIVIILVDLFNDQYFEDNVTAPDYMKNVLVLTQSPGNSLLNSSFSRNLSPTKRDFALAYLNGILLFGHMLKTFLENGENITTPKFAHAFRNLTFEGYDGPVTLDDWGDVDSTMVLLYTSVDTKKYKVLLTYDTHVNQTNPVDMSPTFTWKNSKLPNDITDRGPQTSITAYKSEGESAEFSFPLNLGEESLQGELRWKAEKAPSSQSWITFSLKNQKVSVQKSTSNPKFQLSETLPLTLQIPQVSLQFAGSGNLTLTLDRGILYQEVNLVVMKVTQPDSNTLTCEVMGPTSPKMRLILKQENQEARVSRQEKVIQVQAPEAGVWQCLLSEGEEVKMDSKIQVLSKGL
# Experiments:
# [1] = molecular target: T2, human GUCY2C-rCD4 fusion protein (Homo sapiens (human); Rattus norvegicus, biotinylated (site not given)); assay: ranking ELISA (DELFIA), 5 nM scFv on anti-FLAG, biotinylated antigen, streptavidin-Eu
# T2 construct: GUCY2C conjugated/fused with CD4; also called Hu-GUCY2C-rCD4; human GUCY2C recombinant antigen
# Protocol: (§1) More specifically, after coating an anti-FLAG antibody in a MaxiSorb plate and binding by adding scFvs obtained previously, the remaining scFvs were removed by a washing process. Here, a biotinylated human-GUCY2C-rCD4 protein was incubated and combined, and then the affinity to the antigen was measured by reading signals by DELFIA enhancement with color development through streptavidin-Europlum.
# [2] = molecular target: T1, monkey GUCY2C-rCD4 fusion protein; assay: ELISA (DELFIA), antigen on streptavidin plate, scFv culture solution, Eu-anti-tag Ab
# Protocol: (§2) More specifically, GUCY2C-rCD4 fusion protein, in which the prepared human GUCY2C (SEQ ID NO: 112), monkey GUCY2C (SEQ ID NO: 114), and mouse GUCY2C (SEQ ID NO: 113) were fused, respectively, was bound to a place coated with streptavidin in a Nunc Maxisorp™96 well plate. After removing all the synthetic proteins not combined with washing buffer, the anti-GUCY2C scFV obtained in the culture solution was incubated in each well. After that, the affinity was measured by reading signals DELFIA enhanced using Eu-anti-tag Ab.
# [3] = molecular target: T2, human GUCY2C-rCD4 fusion protein; assay: as above
# Protocol: as §2
# [4] = molecular target: T2, human GUCY2C-rCD4 fusion protein; assay: SPR (Sierra SPR-32), scFv on protein G, antigen 800-12.5 nM, 25 C
# Protocol: Furthermore, the affinity to the GUCY2C antigen of the 18 kinds of scFvs produced in Example 1 was measured by SPR (Surface plasmon resonance) analysis.
# SPR assay was performed with association time 2 min and dissociation time 10 min under the condition of 25 degrees of Celsius using MASS2 (Sierra SPR-32; Bruker). The data were analyzed with Software R3.
# [5] = molecular target: T3, GUCY2C on the cell surface (T84 colon carcinoma cells; HT29-GUCY2C cells) (human, UniProt P25092 24-1073); assay: flow cytometry, scFv(-Fc) at 10 ug/mL on GUCY2C-positive T84 cells, detected with IgG-Fc-PE Ab (FL2-H)
# T3 construct: whole, on cells; also called GUCY2C expressing T84 cells; HT29 GCC cells
# Protocol: Using cells naturally expressing GUCY2C, whether 18 kinds of scFvs produced in Example 1 could actually detect GUCY2C expression on the cell surface was confirmed. For this, a GUCY2C positive cancer cell, T84 colon carcinoma cell (ATCC® CCL248™) was used.
# After separating the two cell lines using trypsin-EDTA, they were placed in FACS buffer (1×PBS+2% BSA). 10 ug/mL of each of the 18 kinds of scFvs and positive control group, 5F9 scFv was cultured with T84 and T-47D cells on ice for 1 hour. The scFv combined to cells was detected using 5 ug/mL IgG-Fc-PE Ab (BioLegend; 409304). The cells were cultured with ToPro®3 (live/dead stain) and then red with a flow cytometer.
# [6] = molecular target: T2, human GUCY2C-rCD4 fusion protein; assay: ranking ELISA (DELFIA), 50 nM scFv on anti-FLAG, biotinylated antigen, streptavidin-Eu
# Protocol: as §1
Binder,Affinity Ranking ELISA (5 nM) signal [1],Binding ELISA signal [2],Binding ELISA signal [3],Kd [4] [nM],binding result [5],Affinity Ranking ELISA (50 nM) signal [6]
"scFv A10 (scFv, also called 2432_01_D08; D08) scFv: EVQLVQSGAEVKKPGSSVKVSCKASGGTFSSYAISWVRQAPGQGLEWMGGIIPIFGTANYAQKFQGRVTITADESTSTAYMELSSLRSEDTAVYYCARTRYIWGSYRAYGMDVWGQGTMVTVSSGGGGSGGGGSGGGASDIQMTQSPSSMSASVGDRVTITCRASQSISSHLNWYQQLPGNAPTLLIYYASNLQSGVPSRFSGSGSGTDFTLTISSLQPDDFATYYCQQSISLPYTFGQGTKVEIK",81200,37200,55400,48,binds,243000
"scFv C01 (scFv, also called 2437_02_H05) scFv: QMQLVQSGAEVKKPGSSVKVSCKASGGTFSSYAISWVRQAPGQGLEWMGGIIPIFGTANYAQKFQGRVTITADESTSTAYMELSSLRSEDTAVYYCVRGYSSIYYYYGMDVWGQGTMVTVSSGGGGSGGGGSGGGASQSGLTQPRSVSGSPGQSVTISCTGTSSDVGGYNYVSWYQQHPGKAPKLMIYDVSKRPSGVSDRFSGSKSGNTASLTISGLQAEDEADYYCGSYTSDGTLVFGGGTKLTVL",3090,21600,37500,1150,–,29500
"scFv A05 (scFv, also called 2427_01_B07) scFv: QVQLVQSGAEVKKPGSSVKVSCKASGGTFSSYTITWVRQAPGQGLEWMGRIIPVLGIANYAQKFQGRVTITADKSTSTAYMELSSLRSEDTAVYYCARDYSSSWNSMDVWGQGTLVTVSSGGGGSGGGGSGGGASQSGLTQPRSVSGSPGQSVTISCTGTSSDVGGYNYVSWYQQHPGKAPKLMIYDVSKRPSGVPDRFSGSKSGNTASLTVSGLHAEDEADYYCSSYAGSNNFVFGTGTKVTVL",18300,–,43000,4390,–,131000
"scFv A06 (scFv, also called 2427_01_C01) scFv: QVQLVQSGAEVKKPGSSVKVSCKASGGTFGSYTISWVRQAPGQGLEWMGRIIPILGIANYAQKFQGRVTITADKSTSTAYMELSSLRSEDTAVYYCARDYSSSWNSMDVWGQGTLVTVSSGGGGSGGGGSGGGASQSGLTQPRSVSGSPGQSVTISCTGTSSDVGAYNYVSWYQQHPGKAPKLMIYEVSKRPSGVPDRFSASKSGNTASLTVSGLQAEDEADYYCSSYAGSNNWVFGGGTKLTVL",35100,–,63100,716,–,185000
"scFv A12 (scFv, also called 2433_01_G08) scFv: EVQLVQPGAEVKKPGSSVKVSCKASGGTLSSYAISWVRQAPGQGLEWMGRIIPILGITNYAQKFQGRVTITADKSTSTAYMELSSLRSEDTAVYFCARDQRPASMDVWGQGTLVTVSSGGGGSGGGGSGGGASQSELTQPASVSGSPGQSITISCTGTSSDVGGYIYVSWYQQHPGKVPKLMIHDVSHRPSGVSNRFSGSRSGNTASLTISGLQAEDEADYFCSSYTSSNNYVFGTGTKVTVL",28100,–,38200,297,–,151000
"scFv A02 (scFv, also called 2427_01_A08) scFv: EVQLVQPGAEVKKPGSSVKVSCKASGGTLSSYAISWVRQAPGQGLEWMGRIIPILGITNYAQKFQGRVTITADKSTSTAYMELSSLRSEDTAVYFCARDQRPASMDVWGQGTLVTVSSGGGGSGGGGSGGGASQSELTQPASVSGSPGQSITISCTGTSSDVGGYIYVSWYQQHPGKVPKLMIHDVSHRPSGVSNRFSGSRSGNTASLTISGLQAEDEADYFCSSYAGSNNYVFGTGTKVTVL",33400,–,48300,743,–,168000
"scFv A04 (scFv, also called 2427_01_B02) scFv: EVQLVQPGAEVKKPGSSVKVSCKASGGTLSSYAISWVRQAPGQGLEWMGRIIPILGITNYAQKFQGRVTITADKSTSTAYMELSSLRSEDTAVYFCARDQRPASMDVWGQGTLVTVSSGGGGSGGGGSGGGASQSELTQPASVSGSPGQSITISCTGTSSDVGGYIYVSWYQQHPGKVPKLMIHDVSHRPSGVSNRFSGSRSGNTASLTISGLQAEDEADYFCSSYTSSNNYYFGTGTKVTVL",30400,–,51000,311,–,173000
"scFv A03 (scFv, also called 2427_01_A12) scFv: QVQLVQSGAEVKKPGSSVKVSCKASGGTFSSYTISWVRQAPGQELEWMGRIIPILGIANYAQKFQGRVTITADKSTSTAYMELSSLRSEDTAVYYCARDYSSSWNSMDVWGQGTLVTVSSGGGGSGGGGSGGGASQSGLTQPPSASGSPGQSVTISCTGTSSDIGYYHYVSWYQQHPGKAPKLMIYEDSKRPSGISNRFSGSKSGTTASLTVSGLQAEDEAHYYCSSFTSRSTWVFGGGTQLTVL",36000,–,59200,219,–,199000
"scFv C02 (scFv, also called 2437_02_H08) scFv: QVQLVQSGAEVKKPGSSVKVSCKASGGTFSSYTISWVRQAPGQGLEWMGRIIPILGIANYAQKFQGRVTITADKSTSTAYMELSSLRSEDTAVYYCARDRSYNWLDPWGRGTLVTVSSGGGGSGGGGSGGGASQSALTQPVSVSGSPGQSITISCTGTISDVGDYNYVSWYQQHPGKAPKLMIYDVNNRPSGVSNRFSGSKSGNTASLTISGLQAEDEADYYCSSYTSSSTLVFGGGTKLTVL",11000,32300,49500,1480,–,86300
"scFv B07 (scFv, also called 2436_02_F10) scFv: EVQLVQSGAEVKRPGSSVKVSCKASGYTFTSYYMHWVRQAPGQGLEWMGIINPSGGSTSYAQKFQGRVTMTRDTSTSTVYMELSSLRSEDTAVYYCAAGTYSSGWTIDYWGQGTTVTVSSGGGGSGGGGSGGGASDIVMTQSPLSLPVTLGQPASISCRSSQSLVYTDGNTYLNWFQQRPGQSPRRLIYKVSNRDSGVPDRFSGSGSGTDFTLKISRVEAEDVGIYYCMHSKQWPPTFGGGTKVEIK",25900,–,68600,293,–,139000
"scFv B10 (scFv, also called 2436_02_G01) scFv: EVQLVQSGAEVKKPGSSVKVSCKASGGTFSSYAISWVRQAPGQGLEWMGGIIPIFGTANYAQKFQGRVTITADKSTSTAYMELSSLRSEDTAVYYCARGHYYYMDVWGQGTTVTVSSGGGGSGGGGSGGGASDIVMTQSPATLSVSPGEGATLSCRASQSVSSNLAWYQQKPGRAPRLLIYGASTRATGIPARFSGSGSGTEFTLTISSLQSEDFAVYYCQQYNNWPTFGGGTKLEIK",12500,–,34400,2860,–,105000
